The chains are these.
B1: WDFY2 (parent)
chain: FWNFKQMWDSKKIGLRQHHCRKCG
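Note: lentivirally expressed fusions sorted by FACS into six bins by GFP to DsRed ratio, PSI derived from sequencing read proportions per bin multiplied by bin number.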

Variants of B1 are the subject of this series. As to the kind of experiment: protein stability index of a GFP-peptide fusion (GPS, HEK-293T) (PSI 1-6); higher = more stable. Particulars: c terminus: a fixed tail appended.
FWNFKQMWDSKKIGLRQHHCRKDG [C23D]: the protein stability index is 1.89.

For the variant FWNFKQMWDSKKIGLRQHHCRKPG [C23P], the protein stability index stood at 2.16.

Regarding FWNFKQMWDSKKIGLRQHHCRKLG [C23L], the protein stability index stood at 2.01.

Turning to FWNFKQMWDSKKIGLRQHHCRKIG [C23I], the protein stability index was 2.48.

With FWNFKQMWDSKKIGLRQHHCRKHG [C23H], the protein stability index came to 2.24.

In the case of FWNFKQMWDSKKIGLRQHHCRKNG [C23N], the protein stability index stood at 2.21.

On to FWNFKQMWDSKKIGLRQHHCRKVG [C23V], for which the protein stability index was 1.79.

FWNFKQMWDSKKIGLRQHHCRKAG [C23A]: the protein stability index turned out to be 1.78.

On to FWNFKQMWDSKKIGLRQHHCRKSG [C23S], for which the protein stability index is 1.78.

FWNFKQMWDSKKIGLRQHHCRKRG [C23R]: the protein stability index came out at 1.79.

With FWNFKQMWDSKKIGLRQHHCRKGG [C23G], the protein stability index was 2.14.

In the case of FWNFKQMWDSKKIGLRQHHCRKKG [C23K], the protein stability index was 2.38.

Consider FWNFKQMWDSKKIGLRQHHCRKTG [C23T], for which the protein stability index came to 2.44.

On to FWNFKQMWDSKKIGLRQHHCRKMG [C23M], for which the protein stability index amounted to 1.94.

In the case of FWNFKQMWDSKKIGLRQHHCRKYG [C23Y], the protein stability index amounted to 1.92.

In the case of FWNFKQMWDSKKIGLRQHHCRKWG [C23W], the protein stability index was 2.45.

For FWNFKQMWDSKKIGLRQHHCRKFG [C23F], the protein stability index stood at 2.17.

Turning to FWNFKQMWDSKKIGLRQHHDRKCG [C20D], the protein stability index came out at 1.89.

In the case of FWNFKQMWDSKKIGLRQHHVRKCG [C20V], the protein stability index was determined as 1.73.

FWNFKQMWDSKKIGLRQHHLRKCG [C20L]: the protein stability index was determined as 2.09.

Take FWNFKQMWDSKKIGLRQHHSRKCG [C20S]: the protein stability index was 2.49.

Regarding FWNFKQMWDSKKIGLRQHHTRKCG [C20T], the protein stability index is 2.28.

As to FWNFKQMWDSKKIGLRQHHERKCG [C20E], the protein stability index was found to be 2.47.

With FWNFKQMWDSKKIGLRQHHARKCG [C20A], the protein stability index stood at 1.82.

In the case of FWNFKQMWDSKKIGLRQHHKRKCG [C20K], the protein stability index amounted to 2.15.

As for FWNFKQMWDSKKIGLRQHHYRKCG [C20Y], the protein stability index is 1.84.

For the variant FWNFKQMWDSKKIGLRQHHIRKCG [C20I], the protein stability index was found to be 2.01.

On to FWNFKQMWDSKKIGLRQHHFRKCG [C20F], for which the protein stability index amounted to 2.54.

Regarding FWNFKQMWDSKKIGLRQHHNRKCG [C20N], the protein stability index was 2.31.

For FWNFKQMWDSKKIGLRQHHRRKCG [C20R], the protein stability index amounted to 2.37.

In the case of FWNFKQMWDSKKIGLRQHHWRKCG [C20W], the protein stability index came out at 3.08.

For the variant FWNFKQMWDSKKIGLRQHHQRKCG [C20Q], the protein stability index worked out at 2.15.

Turning to FWNFKQMWDSKKIGLRQHHHRKCG [C20H], the protein stability index was 3.07.

Regarding FWNFKQMWDSKKIGLRQHHGRKCG [C20G], the protein stability index was determined as 2.91.

For FWNFKQMWDSKKIGLRQHHMRKCG [C20M], the protein stability index was found to be 3.04.

As for FWNFKQMWDSKKIGLRQHHPRKCG [C20P], the protein stability index is 1.94.

Turning to FWNFKQMWDSKKIGLRQHHCRNCG [K22N], the protein stability index worked out at 1.57.

In the case of FWNFKQMWDSKKIGLRQHHCRECG [K22E], the protein stability index is 1.65.

Consider FWNFKQMWDSKKIGLRQHHCRACG [K22A], for which the protein stability index stood at 1.09.

Regarding FWNFKQMWDSKKIGLRQHHCRVCG [K22V], the protein stability index turned out to be 1.7.

Turning to FWNFKQMWDSKKIGLRQHHCRICG [K22I], the protein stability index stood at 4.49.

As for FWNFKQMWDSKKIGLRQHHCRHCG [K22H], the protein stability index amounted to 1.23.

Turning to FWNFKQMWDSKKIGLRQHHCRQCG [K22Q], the protein stability index is 2.21.

For FWNFKQMWDSKKIGLRQHHCRGCG [K22G], the protein stability index amounted to 1.65.

Turning to FWNFKQMWDSKKIGLRQHHCRTCG [K22T], the protein stability index came to 2.87.

Consider FWNFKQMWDSKKIGLRQHHCRLCG [K22L], for which the protein stability index came to 1.47.

As for FWNFKQMWDSKKIGLRQHHCRMCG [K22M], the protein stability index turned out to be 1.8.

For the variant FWNFKQMWDSKKIGLRQHHCRSCG [K22S], the protein stability index was determined as 2.72.

Turning to FWNFKQMWDSKKIGLRQHHCRDCG [K22D], the protein stability index worked out at 1.79.

Turning to FWNFKQMWDSKKIGLRQHHCRYCG [K22Y], the protein stability index amounted to 1.78.

Turning to FWNFKQMWDSKKIGLRQHNCRKCG [H19N], the protein stability index is 2.68.

As for FWNFKQMWDSKKIGLRQHLCRKCG [H19L], the protein stability index was 2.02.

For FWNFKQMWDSKKIGLRQHWCRKCG [H19W], the protein stability index amounted to 1.69.

Turning to FWNFKQMWDSKKIGLRQHYCRKCG [H19Y], the protein stability index stood at 1.76.

Take FWNFKQMWDSKKIGLRQHDCRKCG [H19D]: the protein stability index was 2.11.

As for FWNFKQMWDSKKIGLRQHGCRKCG [H19G], the protein stability index turned out to be 2.38.

For FWNFKQMWDSKKIGLRQHKCRKCG [H19K], the protein stability index is 2.39.

In the case of FWNFKQMWDSKKIGLRQHCCRKCG [H19C], the protein stability index was found to be 1.73.

Consider FWNFKQMWDSKKIGLRQHSCRKCG [H19S], for which the protein stability index was found to be 2.02.

FWNFKQMWDSKKIGLRQHPCRKCG [H19P]: the protein stability index came out at 2.17.

As to FWNFKQMWDSKKIGLRQHRCRKCG [H19R], the protein stability index was determined as 2.39.

FWNFKQMWDSKKIGLRQHFCRKCG [H19F]: the protein stability index came to 1.79.

As for FWNFKQMWDSKKIGLRQHQCRKCG [H19Q], the protein stability index is 1.87.

FWNFKQMWDSKKIGLRQHECRKCG [H19E]: the protein stability index came to 1.62.

Consider FWNFKQMWDSKKIGLRQHTCRKCG [H19T], for which the protein stability index was determined as 1.72.

For FWNFKQMWDSKKIGLRQHICRKCG [H19I], the protein stability index was found to be 2.22.

On to FWNFKQMWDSKKIGLRQHACRKCG [H19A], for which the protein stability index was 1.86.

As to FWNFKQMWDSKKIGLRQHVCRKCG [H19V], the protein stability index is 1.98.

FWNFKQMWDSKKIGLRQRHCRKCG [H18R]: the protein stability index turned out to be 2.5.

On to FWNFKQMWDSKKIGLRQWHCRKCG [H18W], for which the protein stability index amounted to 2.18.

Take FWNFKQMWDSKKIGLRQTHCRKCG [H18T]: the protein stability index is 1.56.

Regarding FWNFKQMWDSKKIGLRQSHCRKCG [H18S], the protein stability index worked out at 1.84.

Take FWNFKQMWDSKKIGLRQVHCRKCG [H18V]: the protein stability index worked out at 1.83.

As to FWNFKQMWDSKKIGLRQYHCRKCG [H18Y], the protein stability index is 2.5.

For the variant FWNFKQMWDSKKIGLRQQHCRKCG [H18Q], the protein stability index stood at 1.44.

As for FWNFKQMWDSKKIGLRQHHCRKCC [G24C], the protein stability index was found to be 2.4.

As for FWNFKQMWDSKKIGLRQHHCRKCA [G24A], the protein stability index stood at 1.58.

Consider FWNFKQMWDSKKIGLRQHHCTKCG [R21T], for which the protein stability index was 1.71.

As to FWNFKQMWDSKKIGLRQHHCYKCG [R21Y], the protein stability index is 1.58.

For the variant FWNFKQMWDSKKIGLRQHHCLKCG [R21L], the protein stability index was 1.1.

Consider FWNFKQMWDSKKIGLRQHHCKKCG [R21K], for which the protein stability index came to 2.01.

In the case of FWNFKQMWDSKKIGLRQHHCSKCG [R21S], the protein stability index was 1.72.

For the variant FWNFKQMWDSKKIGLRQHHCEKCG [R21E], the protein stability index was determined as 2.02.

Turning to FWNFKQMWDSKKIGLRQHHCAKCG [R21A], the protein stability index amounted to 2.34.

Regarding FWNFKQMWDSKKIGLRQHHCGKCG [R21G], the protein stability index came out at 1.85.

As for FWNFKQMWDSKKIGLRQHHCHKCG [R21H], the protein stability index amounted to 2.66.

Turning to FWNFKQMWDSKKIGLRQHHCDKCG [R21D], the protein stability index was 2.04.

For FWNFKQMWDSKKIGLRQHHCNKCG [R21N], the protein stability index is 2.46.

Take FWNFKQMWDSKKIGLRQHHCVKCG [R21V]: the protein stability index stood at 1.21.

Turning to FWNFKQMWDSKKIGLRQHHCPKCG [R21P], the protein stability index came to 1.53.

With FWNFKQMWDSKKIGLRQHHCIKCG [R21I], the protein stability index is 1.29.

Consider FWNFKQMWDSKKIGLRQHHCQKCG [R21Q], for which the protein stability index is 2.11.

Take FWNFKQMWDSKKIGLRQHHCFKCG [R21F]: the protein stability index was 1.76.

For FWNFKQMWDSKKIGLRQHHCMKCG [R21M], the protein stability index was 2.21.

The values above are taken from the supplement of paper PMC10567573.
